Amyloid nucleation score data for 54 substances are collected here from the supplement of paper PMC12042874.

± gives the uncertainty stated by the source.

This series can be described thus: amyloid nucleation score (Sup35N fusion, yeast selection) (log enrichment); library NNK3; higher = more nucleation; inactive = no reads after selection. An outline of the steps:
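The nucleation score, computed with DiMSum, is the log enrichment of output over input reads, centred on the mode score of non-aggregating sequences. Sequences with under 100 input reads were dropped. Reads were generated by Illumina sequencing of plasmid inserts from psi-negative yeast with Sup35N fused to peptides of 20 random codons, induced with 100 μM copper sulfate for 24 hours and grown 7 days at 30°C on medium lacking adenine and uracil.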
As for NSQKVIYKPFEAIYVTGTLT, the amyloid nucleation score entry was “inactive”. As for YSNWLTSRNYTNLLLL, the entry is “inactive”; as for KRSPKIQDL, “inactive”. Turning to INIYSKELSNDGFSTLHYFM, the amyloid nucleation score result is “inactive”. The entry for VANYGQVQHWYRGYVEDEGL is “inactive”. As for FRDCMVINDMVVWDFCTSCA, the entry is “inactive”; as for GEMVFGVVWIVELETFCIPI, “inactive”.

With FFLNGVCDCLRIPCTNVYLY, the amyloid nucleation score entry was “inactive”. Regarding SMFNGNLSRSMWFWRVRVTP, the amyloid nucleation score entry is “inactive”. Turning to SCDRVFNLDVNRWKLMRKTC, the amyloid nucleation score entry is “inactive”. Regarding KRHYMGTAQGCMGIVLKVFY, the amyloid nucleation score entry was “inactive”. In the case of HIMSEGHSLAMGCTCSNNYP, the amyloid nucleation score entry was “inactive”.

Turning to RLFFNPVVVVIWPGVRNVGV, the amyloid nucleation score is 0.189 ± 0.66. Regarding FFSIT, the amyloid nucleation score result is “inactive”. The entry for YYWRMYCS is “inactive”.

TCIGNNPMPYFTFCITHNAM yielded an amyloid nucleation score of 1.03 ± 0.24. The figure for YGFCSC is -0.033 ± 0.81; for QFTGHINRDVNM it is “inactive”; for TGVFDFRRVVLLVSHSEV it is “inactive”.

As for NYLRLFLISIAYKSVLSVML, the amyloid nucleation score result was “inactive”. As to LSNIICSCQLCWACPSLSVM, the amyloid nucleation score worked out at 2.47 ± 0.057. The entry for RMPRQGLWMRVF is “inactive”; for SIFMCNIVLFKRVVLPRGAS it is 0.886 ± 0.18.

With PSLYDLKRSCWGSWMAYEWK, the amyloid nucleation score result is “inactive”. As for LVYFFFRVYNGPRMGS, the entry is “inactive”. The entry for VEFIEFMYDPSYYVSNQNST is “inactive”. The entry for CMNIRPMATLTESSS is “inactive”; for LYSGFRGMPKYTDKNCMGRV it is “inactive”. As for SEYFWLVWPSA, the amyloid nucleation score result was “inactive”. The entry for DVTYECGRS is “inactive”; for CWFNPDPGLKWF it is “inactive”. As for REVRNWRERVCQMRVLVVMC, the entry is “inactive”; as for NLCIWPVTDAHLSLMHYLTP, “inactive”. The substance SVLIFTMKDFLGEIFINVPT gave an amyloid nucleation score of 1.89 ± 0.092. The entry for PNPYGNGIITWKN is “inactive”; for CSATRYFCRNLRRVCVNEYG it is “inactive”. As for RYLITVAIPLSIGVLSTV, the entry is “inactive”; as for RWKLFWIHDR, 1.16 ± 0.14; as for YFVTFVYTKLLCNVRSLL, 0.578 ± 0.12.

In turn, CCCTNDMWTTGPNCS registered an amyloid nucleation score of -0.432 ± 0.76.

NWIVGSWCKVLSVVEKEW returned an amyloid nucleation score of 0.101 ± 0.62. The entry for LVFRIN is “inactive”; for INYYFWTSGK it is 0.731 ± 0.3. As for TYFYAFALTVPYSWHSEDRM, the figure is 2.04 ± 0.054; as for LFEPVIEILI, “inactive”. As for ICGNPLVLLMNNSVRLG, the figure is 0.092 ± 0.64; as for RQSALRWFSNDNWGICKAHD, -0.06 ± 0.87; as for FYTWLPCVYSN, -0.335 ± 1.7. As to SNWECLGGHENGINCRDI, the amyloid nucleation score result is “inactive”.

As to FLFLLWCNMMPEMYVIAMNI, the amyloid nucleation score entry is “inactive”. Turning to NGGIERLSWVRVWFRHTFQS, the amyloid nucleation score result is “inactive”. Consider GWYLYIVTG, for which the amyloid nucleation score result was “inactive”.

For the substance MSESTITLPWIAGIAWDEKL, the amyloid nucleation score result is “inactive”. As for YRAYVYEDTFWWAWYQFILL, the entry is “inactive”.
